Source: the supplement of paper PMC9170038

Tested on: MS2 coat protein
Assay: apparent KD of MS2 coat protein; higher = weaker reporter binding
Details: Eterna round: R107
Method in brief: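 Apparent KD stands for the median, per design, of fits to normalised cluster binding curves. The curves came from titrating on-chip-transcribed RNA switches on Illumina sequencing clusters with SNAP-549-labelled MS2 coat protein, twofold from 0.7 or 1.5 nM to 3 µM. Buffer was 100 mM Tris-HCl pH 7.5, 80 mM KCl, 4 mM MgCl2, without or with constant ligand.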

[1] = input ligand: theophylline 20 uM
[2] = input ligand: theophylline 2 mM
[3] = input ligand: tryptophan 2.4 mM

Sequence | apparent KD of MS2 coat protein (input ligand: arginine 13.2 mM) | apparent KD of MS2 coat protein (input ligand: none) | apparent KD of MS2 coat protein [1] | apparent KD of MS2 coat protein [2] | apparent KD of MS2 coat protein [3]
GGGUGCGGGCGAAGGAGCGUGAAGACAUGAGGAUCACCCAUGUAGAGGCCCGAACAGGGUUCGCAGGUAGGUCGCGCGCGUGCCC [#1 Same State - Arginine B Attempt #5 (HarryS)] | 11.8 nM | 15.6 nM | 20.4 nM | 18.6 nM | 16.3 nM
GGGUGCGGGUGAAGGAGCGUGAAGACAUGAGGAUCACCCAUGUAGAGGCCCGAACAGGGUUCGCAGGUAGGUCGCACCCGUGCCC [#1 Same State - Arginine B Attempt #3 (HarryS)] | 12 nM | 17.3 nM | 22.8 nM | 19.5 nM | 16.4 nM
GGGUGGUAGGCGGCCGCCACUGAUUUUCAUUCAUAGAUGACAUGAGGAUCACCCAUGUUUAUGUGCAGGACCGGGCCUGCUGUGG [aaaU] | 43.4 nM | 144 nM | 102 nM | 115 nM | 116 nM
GGGUUACUCUAUGAUACCAGUUCCAUGCCGAAACCUGUGUACAUGAGGAUCACCCAUGUGAACCCUUGGCAGCAUUAAUCAACUG [theeternabot_exclusion_MS2_Theo_B_35] | 51.5 nM | – | 163 nM | – | 69.5 nM
GGUAUGUAUUCGGAAACGAAUGCAUACCAACGAGGACCGGUACGGCCGCCACUCGCGGCUGAUCAACAUGAGGAUCACCCAUGUA [Ex Tryptophan A 4] | 19.4 nM | 24.8 nM | 33 nM | 31.5 nM | 28.4 nM
GGUAUGUAUUCGGAAACGAAUGCAUACCAACGAGGACCGGUACGGCCGCCACUCGGCCGUGAUCAACAUGAGGAUCACCCAUGUA [Ex Tryptophan A 6] | 16.3 nM | – | 21.5 nM | 20.2 nM | –
GGUCUCUGGAGCGAUACCAGCUUGAUCGUACUGGCCUGGUACAUGAGGAUCACCCAUGUAAGCCCUUGGCAGCGCUCCAGAGACC [#1 Exclusion - Theophylline B Attempt #8 (HarryS)] | 11.8 nM | – | 16.3 nM | – | 11.2 nM
GGUGGGACUUGUGAUACCAGCCUAAUUCUAAACGAAUUGCACAUGAGGAUCACCCAUGUCGGCCCUUGGCAGCAUGAGUAUUUAU [Anartiison] | 73.3 nM | – | 104 nM | – | 117 nM
GGUGGUGGGACGGAUACCAGCCACCGCGGCAACGCAACAUGAGGAUCACCCAUGUUGGGUGGCCCUUGGCAGCUGUCCUGCGGCG [#1 Same State - Theophylline B Attempt #25 (HarryS)] | 12.6 nM | – | 18.5 nM | – | 12.7 nM
GGUGGUGUGACGGAUACCAGCCACCGCGGCAACGCAACAUGAGGAUCACCCAUGUUGGGUGGCCCUUGGCAGCUGUCGUGCGGCG [#1 Same State - Theophylline B Attempt #24 (HarryS)] | 40.1 nM | – | 91.2 nM | – | 53.9 nM
GGUGUAAUUGACUCUUUGUUUUAUUUGUAACGAGGACCGGUACGGCCGCCACUCGAUAUUCACAUGAGGAUCACCCAUGUUAGCU [JR_ExcTryptoA_Sub006] | 19.1 nM | – | 22.5 nM | 24.3 nM | –
GGUUACUCUACGGCCGCCACUGAACAUGAGGAUCACCCAUGUAAUGUUCAGACGUCUUUAGACGACAGGACCGGGUAGUGUAACC [Tryptophan B 5] | 119 nM | – | 208 nM | 232 nM | –
GGUUACUCUACGGCCGCCACUGUAAAGUAAAGAUACCUGUACAUGACAUGAGGAUCACCCAUGUACAGGACCGGGUAGUGUAACC [Tryptophan B 16] | 133 nM | – | 636 nM | 804 nM | –
GGUUACUCUACGGCCGCCACUGUCAUGUAAAGAUACCUGUACAUGACAUGAGGAUCACCCAUGUGCAGGACCGGGUAGUGUAACC [Tryptophan B 18] | 91.3 nM | – | 177 nM | 201 nM | –
GGUUCCUCAACGGCCGCCACUUACUGGAUUAGUGGACCUACUUGCAACAUGAGGAUCACCCAUGUAAGGACCGGGUUGCUCCCAA [theeternabot_exclusion_MS2_Trp_B_34] | 46.9 nM | – | 90.1 nM | 87.9 nM | –
GGUUGGUCCUCACAUGAGGAUCACCCAUGUCGAGGACCGGUACGGCCGCCACUCGAUUGUACCAGGGCUUAAGAGCCUAUGAGCA [Erenedquce] | 12.6 nM | – | 23.9 nM | 17.6 nM | –
GGUUGGUGUAUAUAUAUAUUGAUUACUGAAGGAGCGGGAAAUAACCCAGGUAGGUCGCAGAGAUCCACAUGAGGAUCACCCAUGU [!0.J] | 31 nM | 53.7 nM | 50.2 nM | 51 nM | 38.9 nM
GGUUUCGCGGGCGAUACCAGCUUGAUCGUACUGGCCUGGUACAUGAGGAUCACCCAUGUAAGCCCUUGGCAGCGCGCGCGAGACC [#1 Exclusion - Theophylline B Attempt #4 (HarryS)] | 13.3 nM | – | 16.9 nM | – | 11.7 nM

Sequence | apparent KD of MS2 coat protein (input ligand: arginine 13.2 mM) | apparent KD of MS2 coat protein (input ligand: none) | apparent KD of MS2 coat protein [1] | apparent KD of MS2 coat protein [2] | apparent KD of MS2 coat protein [3]
GUAAAUUAUAGAAGGAGCGUCGAAAAUGGGUAAACAUGAGGAUCACCCAUGUAAAGGGAACGACAGGUAGGUCGCUAUAAUUUAC [AstromonsSSArgB#15] | 116 nM | 170 nM | 190 nM | 259 nM | 167 nM
GUACACUAGUCGGCCGCCACUGUUACAUGAGGAUCACCCAUGUAGGAUCACCCAUGACAUGAGGAUAGGACCGGGACGCAUGAGG [Exclusion Tryptophan B] | 56.8 nM | – | 56.1 nM | 69 nM | –
GUACAUGAGGAUCACCCAUGUAUAGUUGAAGGAGCGACCAGAGGGUCAGGUAGGUCGCAGCACAUGAGGUAAGGCCGUGUAUGCU [#1 Exclusion - Arginine A Attempt #20 (Inspired by Pi)] | 17.2 nM | 15.2 nM | 23.9 nM | 21.7 nM | 16.8 nM
GUAGCGACGACGGCCGCCACUCACACGAGAGGGUAGACCAACCUUCACAUGAGGAUCACCCAUGUGAGGACCGGGUUGUCGGUAC [Exclusion - Tryptophan B] | 20 nM | – | 26.6 nM | 33 nM | –
GUCACCAGGAGAAGGAGCGUGAAGACAUGAGGAUCACCCAUGUAGAGGCGCCGACGGCGUUCGCAGGUAGGUCGCUCCUGGUGAC [#1 Same State - Arginine B Attempt #17 (HarryS)] | 22 nM | 20.5 nM | 35.2 nM | 26.6 nM | 20.4 nM
GUCAGUGACAGAAGGAGCGACAUGAGGAUCACCCAUGUCUCCCGUUAUGGGAGUUCCUUAGGUCAGGUAGGUCGCUGUCACUGAC [#1 Exclusion - Arginine B Attempt #30 (Inspired by Omei)] | 227 nM | 215 nM | 137 nM | 284 nM | 194 nM
GUCCUCAUGACGGCCGCCACUAAACAUGAGGAUCACCCAUGUAAUGAUCCAUUAAAUGAUAAUAGUAGGACCGGGUCAAAAUAAA [Same State Typptophan B GF11] | 135 nM | – | 833 nM | 979 nM | –
GUCCUCGACACGGCCGCCACUGGCUCGCCUGUUGGCGCCGACCCACAUGAGGAUCACCCAUGUUCCAGGACCGGGUGUCACAGCA [theeternabot_sameState_MS2_Trp_B_42] | 64.6 nM | – | 312 nM | 311 nM | –
GUCGCUGAGAGAAGGAGCGUGAAGACAUGAGGAUCACCCAUGUAGAGGCGCCGAAGGCGUUCGCAGGUAGGUCGCUCUCAGUGAC [#1 Same State - Arginine B Attempt #21 (HarryS)] | 10.2 nM | 15.4 nM | 19.2 nM | 21.8 nM | 17.3 nM
GUCGGAGUCGGAAGGAGCGACAUGAGGAUCACCCAUGUCUCCCGUUAUGGGAGUUCCUUAGGUCAGGUAGGUCGCCGACUCCGAC [#1 Exclusion - Arginine B Attempt #24 (Inspired by Omei)] | 104 nM | 190 nM | 202 nM | 234 nM | 240 nM
GUCUCUGAGAGAAGGAGCGUGAAGACAUGAGGAUCACCCAUGUAGAGGCGCCGACGGCGUUCGCAGGUAGGUCGCUCUCAGAGAC [#1 Same State - Arginine B Attempt #19 (HarryS)] | 38.4 nM | 22 nM | 35 nM | 17.1 nM | 23.7 nM
GUCUUUGACGAUCUGGGAAAACCAGAUCGACGAGGACCGGUACGGCCGCCACUCGUGUUUUCUUUACAUGAGGAUCACCCAUGUA [#17 Tryptophan A Same State] | 13.2 nM | – | 15.7 nM | 15.1 nM | –
GUGAAGUUAGUGAGCGUUAGUCAAGCCAAACGAGGACCGGUACGGCCGCCACUCGCGCAUCGACAUGAGGAUCACCCAUGUGCCG [theeternabot_exclusion_MS2_Trp_A_12] | 18.4 nM | – | 15.7 nM | 17.7 nM | –
GUGACUUAAAGGCGCCAUUUGUGAUAGGAAGGAGCGGCGAAAUAGCCAGGUAGGUCGCCUAUACAUGAGGAUCACCCAUGUCACC [XARG-A 26] | 48.7 nM | 98.5 nM | 84.4 nM | 123 nM | 73.7 nM
GUGAGCGCCGAACAUCGCUGGUCCUCUAUCCGAGGACCGGUACGGCCGCCACUCGACAUGAGGAUCACCCAUGUUGGCACUGGCG [Inbemama] | 9.22 nM | – | 13.4 nM | 11.7 nM | –
GUGCGGUCUGAUGAUACCAGAUGUGGUGGGAACAUGAGGAUCACCCAUGUUGUGAGGCAGGUCCCUUGGCAGCAUGAGUGAGCUU [TheoB-ms2@32-2] | 12.4 nM | 119 nM | 229 nM | 156 nM | 72.6 nM
GUGCUGGUAUCGGCCGCCACUGUAACAUGACAUCCCAGGGCCGACAUGAGGAUCACCCAUGUUAACAGGACCGGGAUAUCAACGA [Riorquen] | 13.2 nM | – | 28.9 nM | 19.5 nM | –
